Data reported in patent publication US20250163169.

T1: 43-mer covering the stalk region of CD95L (residue 103 to residue 145)
T1 chain: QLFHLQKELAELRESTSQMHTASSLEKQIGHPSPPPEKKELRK

T2: Recombinant Ig-CD95L
T2 chain: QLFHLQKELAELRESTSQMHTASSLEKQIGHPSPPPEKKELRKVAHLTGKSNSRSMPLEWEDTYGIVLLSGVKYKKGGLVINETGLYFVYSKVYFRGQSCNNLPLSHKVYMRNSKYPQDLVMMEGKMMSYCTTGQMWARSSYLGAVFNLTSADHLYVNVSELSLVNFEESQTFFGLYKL


Key:
[1] = target: T1, 43-mer covering the stalk region of …
[2] = target: T2, Recombinant Ig-CD95L

Row | Protein | percentage of degradation of the 43-mer (LC-MS/MS) [1] | cleavage of Ig-CD95L (western blotting) [2]
1 | ADAM10 (protein) TTSAEKNTCQLYIQTDHLFFKYYGTREAVIAQISSHVKAIDTIYQTTDFSGIRNISFMVKRIRINTTADEKDPTNPFRFPNIGVEKFLELNSEQNHDDYCLAYVFTDRDFDDGVLGLAWVGAPSGSSGGICEKSKLYSDGKKKSLNTGIITVQNYGSHVPPKVSHITFAHEVGHNFGSPHDSGTECTPGESKNLGQKENGNYIMYARATSGDKLNNNKFSLCSIRNISQVLEKKRNNCFVESGQPICGNGMVEQGEECDCGYSDQCKDECCFDANQPEGRKCKLKPGKQCSPSQGPCCTAQCAFKSKSEKCRDDSDCAREGICNGFTALCPASDPKPNFTDCNRHTQVCINGQCAGSICEKYGLEECTCASSDGKDDKELCHVCCMKKMDPSTCASTGSVQWSRHFSGRTITLQPGSPCNDFRGYCDVFMRCRLVDADGPLARLKKAIFSPELYENIAE | more of 20% of cleavage | –
2 | MMP2 (protein) YNFFPRKPKWDKNQITYRIIGYTPDLDPETVDDAFARAFQVWSDVTPLRFSRIHDGEADIMINFGRWEHGDGYPFDGKDGLLAHAFAPGTGVGGDSHFDDDELWTLGEGQVVRVKYGNADGEYCKFPFLFNGKEYNSCTDTGRSDGFLWCSTTYNFEKDGKYGFCPHEALFTMGGNAEGQPCKFPFRFQGTSYDSCTTEGRTDGYRWCGTTEDYDRDKKYGFCPETAMSTVGGNSEGAPCVFPFTFLGNKYESCTSAGRSDGKMWCATTANYDDDRKWGFCPDQGYSLFLVAAHEFGHAMGLEHSQDPGALMAPIYTYTKNFRLSQDDIKGIQELYGASPDIDLGTGPTPTLGPVTPEICKQDIVFDGIAQIRGEIFFFKDRFIWRTVTPRDKPMGPLLVATFWPELPEKIDAVYEAPQEEKAVFFAGNEYWIYSASTLERGYPKPLTSLGLPPDVQRVDAAFNWSKNKKTYIFAGDKFWRYNEVKKKMDPGFPKLIADAWNAIPDNLDAVVDLQGGGHSYFFKGAYYLKLENQSLKSVKFGSIKSDWLGC | more of 20% of cleavage | Using this Ig-CD95L, we showed that MMP2 and MMP3 can cleave CD95L
3 | MMP7 (protein) YSLFPNSPKWTSKVVTYRIVSYTRDLPHITVDRLVSKALNMWGKEIPLHFRKVVWGTADIMIGFARGAHGDSYPFDGPGNTLAHAFAPGTGLGGDAHFDEDERWTDGSSLGINFLYAATHELGHSLGMGHSSDPNAVMYPTYGNGDPQNFKLSQDDIKGIQKLYGKRSNSRKK | more of 20% of cleavage | –
4 | MMP12 (protein) GPVWRKHYITYRINNYTPDMNREDVDYAIRKAFQVWSNVTPLKFSKINTGMADILVVFARGAHGDFHAFDGKGGILAHAFGPGSGIGGDAHFDEDEFWTTHSGGTNLFLTAVHEIGHSLGLGHSSDPKAVMFPTYKYVDINTFRLSADDIRGIQSLYGDPKENQRLPNPDNSEPALCDPNLSFDAVTTVGNKIFFFKDRFFWLKVSERPKTSVNLISSLWPTLPSGIEAAYEIEARNQVFLFKDDKYWLISNLRPEPNYPKSIHSFGFPNFVKKIDAAVFNPRFYRTYFFVDNQYWRYDERRQMMDPGYPKLITKNFQGIGPKIDAVFYSKNKYYYFFQGSNQFEYDFLLQRITKTLKSNSWFGC | more of 20% of cleavage | –
